Reference: paper doi:10.1101/2023.04.03.535445 (bioRxiv, 2023)

What was measured:
[1] = target: glycosomal malate dehydrogenase (MDH, residues 1-323) of Trypanosoma cruzi (Trypanosoma cruzi) (UniProt Q4DRD8); assay: ITC
[2] = target: MDH GSGS-linker mutant (GSGS introduced between PTS1 and MDH) (Trypanosoma cruzi); assay: ITC
[3] = target: MDH with the 62-70 loop replaced with GS-linker (Trypanosoma cruzi); assay: ITC
[4] = target: Pex5TPR with a GSGS-spacer between the TPR domain and the Wxxx(F/Y) motif (Trypanosoma cruzi) (UniProt Q4DPQ9); assay: ITC
[5] = target: Pex5 Y358A mutant (Pex5TPR) (Trypanosoma cruzi) (UniProt Q4DPQ9); assay: ITC
[6] = target: truncated Pex5 containing a single Wxxx(F/Y) motif (residues 314-666; Pex5TPR) (Trypanosoma cruzi) (UniProt Q4DPQ9); assay: ITC
[7] = target: Pex5 mutant with a partial deletion of the 457-489 loop (Pex5 Δ470-480) (Trypanosoma cruzi) (UniProt Q4DPQ9); assay: ITC
[8] = target: the molecule itself; assay: cryo-EM structure

Molecule: Pex5 P490R mutant (from UniProt Q4DPQ9 316-668) (domain or fragment)
- fold decrease in affinity against wild type Pex5 [1]: > 3 fold

Molecule: truncated Pex5 containing a single Wxxx(F/Y) motif (residues 314-666; Pex5TPR) (from UniProt Q4DPQ9 316-668) (domain or fragment)
- Kd [1]: 435 nM
- fold increase in affinity against wild type MDH [2]: 4 fold
- fold decrease in affinity against wild type MDH [3]: 2.5 fold

Molecule: N-terminal domain of Pex14 (Pex14NTD; residues 21-85) of Trypanosoma cruzi (domain or fragment)
- fold decrease in affinity against wild type Pex5 [4]: 3.5 fold
- fold decrease in affinity against wild type Pex5 [5]: 1.5 fold
- Kd [6]: 53 nM

Molecule: Pex14NTD(A48F) (domain or fragment)
- fold decrease in affinity against wild type Pex14NTD [6]: 2 fold

Molecule: H-ARSKL-OH [short peptide encompassing PTS1 of MDH (residues 319-ARSKL-323)]
- fold decrease in affinity against wild type Pex5 [7]: 3 fold

B1: glycosomal malate dehydrogenase (MDH, residues 1-323) of Trypanosoma cruzi (enzyme, UniProt Q4DRD8 1-323, looked up)
chain: MVNVAVIGAAGGIGQSLSLLLLRELPFGSTLSLYDVVGAPGVAADLSHIDRAGITVKHAAGKLPPVPRDPALTELAEGVDVFVIVAGVPRKPGMTRDDLFNVNAGIVMDLVLTCASVSPNACFCIVTNPVNSTTPIAAQTLRKIGVYNKNKLLGVSLLDGLRATRFINNARHPLVVPYVPVVGGHSDVTIVPLYSQIPGPLPDESTLKEIRKRVQVAGTEVVKAKAGRGSATLSMAEAGARFTMHVVKALMGLDTPMVYAYVDTDGEHECPFLAMPVVLGKNGIERRLPIGPITTVEKEMLEEAVGVVKKNIAKGETFARSKL
- stoichiometry N [8]: 4
